Ki data for 48 substances are collected here from patent US20120225828A1.

Bridge positions count the residues as written; N and C are the ends. Square brackets hold non-standard residues; d marks the D form. dPhe(3-Cl) = N[C@H](Cc1cccc(Cl)c1)C(=O)O; dPhe(4-Cl) = N[C@H](Cc1ccc(Cl)cc1)C(=O)O; dPhe(4-Me) = Cc1ccc(C[C@@H](N)C(=O)O)cc1; dPhe(2-Cl) = N[C@H](Cc1ccccc1Cl)C(=O)O; dPhe(4-F) = N[C@H](Cc1ccc(F)cc1)C(=O)O; dPhe(2-F) = N[C@H](Cc1ccccc1F)C(=O)O; Nle = CCCC[C@H](N)C(=O)O; Orn = NCCC[C@H](N)C(=O)O; Dab = NCC[C@H](N)C(=O)O; Dap = NC[C@H](N)C(=O)O

The target in the first assay is recombinant human melanocortin-1 receptor hMCR-1a (human) (UniProt Q01726). The assay is described as follows: competition with [I125]-NDP-α-MSH; HEK-293 hMCR-1a membrane homogenates.
recombinant human melanocortin-1 receptor hMCR-1a (human), sequence (Q01726 whole entry): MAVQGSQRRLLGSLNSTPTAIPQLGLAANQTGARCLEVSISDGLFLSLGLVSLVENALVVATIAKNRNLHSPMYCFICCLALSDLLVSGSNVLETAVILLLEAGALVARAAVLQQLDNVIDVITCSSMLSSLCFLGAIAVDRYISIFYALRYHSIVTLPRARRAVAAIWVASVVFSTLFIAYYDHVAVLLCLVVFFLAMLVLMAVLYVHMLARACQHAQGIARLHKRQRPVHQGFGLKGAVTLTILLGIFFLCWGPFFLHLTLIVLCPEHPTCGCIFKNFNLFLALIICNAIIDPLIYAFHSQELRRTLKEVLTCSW
For the substance “Ac-Nle-cyclo(Dab-His-D-Phe-Arg-Dab)-Trp-NH2 with bridge C(═O)-(CH2)2-C(═O) (peptide)”, the Ki (usually the dissociation constant of the complex between target and ligand, obtained from inhibition or displacement) came out at 0.015 nM.
As for “Ac-Nle-cyclo(Dab-His-D-Phe-Arg-Dap)-Trp-NH2 with bridge C(═O)-(CH2)2-C(═O) (peptide)”, the inhibition constant (Ki) came out at 0.025 nM.
Still for that read-out and setting: the figure for “Ac-Nle-cyclo(Dap-His-D-Phe-Arg-Dab)-Trp-NH2 with bridge C(═O)-(CH2)2-C(═O) (peptide)” is 0.065 nM.
As for “Ac-Nle-cyclo(Dap-His-D-Phe-Arg-Dap)-Trp-NH2 with bridge C(═O)-(CH2)2-C(═O) (peptide)”, the Ki amounted to 0.03 nM.
Turning to “Ac-Nle-cyclo(Glu-Cit-D-Phe-Arg-Dab)-Trp-NH2 (SEQ ID NO: 54) (peptide)”, the inhibitory constant (Ki) came to 0.45 nM.
The same measure, in the same setting: the figure for “Ac-Nle-cyclo(Glu-Cit-D-Phe-Arg-Dab)-Trp-NH2 (peptide)” is 0.45 nM.
On to “Ac-Nle-cyclo(Glu-Dab-D-Phe-Arg-Dab)-Trp-NH2 (SEQ ID NO: 57) (peptide)”, for which the Ki was 0.05 nM.
The same measure, in the same setting: next, “Ac-Nle-cyclo(Glu-Dab-D-Phe-Arg-Dab)-Trp-NH2 (peptide)”: 0.05 nM.
In the case of “Ac-Nle-cyclo(Glu-His-D-Phe-Arg-Dab)-D-Nal 1-NH2 (peptide)”, the inhibition constant (Ki) was 0.1 nM.
With “Ac-Nle-cyclo(Glu-His-D-Phe-Arg-Dab)-D-Trp-NH2 (peptide)”, the inhibition constant Ki was 0.55 nM.
Same read-out and setting: next, “Ac-Nle-cyclo(Glu-His-D-Phe-Arg-Dab)-Nal 1-NH2 (peptide)”: 0.005 nM.
Take “Ac-Nle-cyclo(Glu-His-D-Phe-Arg-Dab)-Nal 2-NH2 (SEQ ID NO: 14) (peptide)”: the Ki was 0.02 nM.
In the case of “Ac-Nle-cyclo(Glu-His-D-Phe-Arg-Dab)-Nal 2-NH2 (peptide)”, the inhibition constant Ki is 0.01 nM.
For the substance “Ac-Nle-cyclo(Glu-His-D-Phe-Arg-Dab)-Trp-OH (peptide)”, the inhibition constant Ki came out at 2 nM.
As for “Ac-Nle-cyclo(Glu-His-D-Phe-Arg-Dap)-Trp-OH (peptide)”, the inhibition constant Ki turned out to be 1 nM.
On the same count and under the same terms, next, “Ac-Nle-cyclo(Glu-Orn-D-Phe(3,4-F)-Arg-Dab)-NH2 (peptide)”: 40 nM; “Ac-Nle-cyclo(Glu-Orn-D-Phe(4-OMe)-Arg-Dab)-NH2 (peptide)”: 2 nM; “Ac-Nle-cyclo(Glu-Orn-D-Phe-Arg-Dab)-Trp-NH2 (SEQ ID NO: 58) (peptide)”: 0.015 nM.
Still for that read-out and setting: next, “Ac-Nle-cyclo(Glu-Orn-D-Phe-Arg-Dab)-Trp-NH2 (peptide)”: 0.015 nM; “Ac-Nle-cyclo(Glu-Pro-D-Phe-Arg-Dab)-NH2 (peptide)”: 2250 nM.
Same read-out and setting: next, Ac-[Nle]DH[dF]R[Dap]W-NH2 (lactam 2-6): 2 nM; Ac-[Nle]EH[dF]A[Dab]-NH2 (lactam 2-6): 645 nM.
Turning to “Ac-[Nle]EH[dF]A[Dab]-NH2 (lactam 2-6; SEQ ID NO: 48)”, the Ki was 645 nM.
Regarding Ac-[Nle]EH[dF]G[Dab]W-NH2 (lactam 2-6), the inhibitory constant (Ki) was 9 nM.
Regarding Ac-[Nle]EH[dF]R[Dab]-NH2 (lactam 2-6), the Ki stood at 7 nM.
On to “Ac-[Nle]EH[dF]R[Dab]-NH2 (lactam 2-6; SEQ ID NO: 47)”, for which the inhibition constant (Ki) came to 7 nM.
In the case of Ac-[Nle]EH[dF]R[Dab]A-NH2 (lactam 2-6), the Ki amounted to 2 nM.
In the case of Ac-[Nle]EH[dF]R[Dab]K-NH2 (lactam 2-6), the Ki was found to be 2 nM.
In the case of Ac-[Nle]EH[dF][Dab]-NH2 (lactam 2-5), the Ki was determined as 10000 nM.
Take Ac-[Nle]EP[dF]R[Dab]W-NH2 (lactam 2-6): the inhibition constant Ki came to 3 nM.
In the case of “Ac-[Nle]E[Orn][dF]R[Dab]-NH2 (lactam 2-6)”, the inhibitory constant (Ki) is 4 nM.
Take “Ac-[Nle]E[Orn][dPhe(2-Cl)]R[Dab]-NH2 (lactam 2-6)”: the Ki was determined as 30 nM.
With “Ac-[Nle]E[Orn][dPhe(2-F)]R[Dab]-NH2 (lactam 2-6)”, the inhibition constant (Ki) turned out to be 18 nM.
In the case of “Ac-[Nle]E[Orn][dPhe(3-Cl)]R[Dab]-NH2 (lactam 2-6)”, the Ki worked out at 35 nM.
On to “Ac-[Nle]E[Orn][dPhe(4-Cl)]R[Dab]-NH2 (lactam 2-6)”, for which the inhibition constant Ki came out at 2 nM.
“Ac-[Nle]E[Orn][dPhe(4-F)]R[Dab]-NH2 (lactam 2-6)”: the inhibition constant Ki came out at 20 nM.
As for “Ac-[Nle]E[Orn][dPhe(4-Me)]R[Dab]-NH2 (lactam 2-6)”, the Ki worked out at 3 nM.

The target of another assay is recombinant human melanocortin-4 receptor hMCR-4 (human) (UniProt P32245). The assay is described as follows: competition with [I125]-NDP-α-MSH; HEK-293 hMCR-4 membrane homogenates.
recombinant human melanocortin-4 receptor hMCR-4 (human), sequence (P32245 whole entry): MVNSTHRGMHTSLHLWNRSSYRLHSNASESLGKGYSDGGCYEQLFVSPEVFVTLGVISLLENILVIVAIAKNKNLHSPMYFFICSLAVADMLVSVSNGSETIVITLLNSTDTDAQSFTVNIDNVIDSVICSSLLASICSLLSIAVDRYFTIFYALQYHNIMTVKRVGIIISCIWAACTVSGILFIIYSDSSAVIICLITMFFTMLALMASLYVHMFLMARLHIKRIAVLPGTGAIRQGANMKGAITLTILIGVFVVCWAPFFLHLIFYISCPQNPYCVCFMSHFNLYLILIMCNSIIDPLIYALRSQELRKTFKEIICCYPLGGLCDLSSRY
Take “Ac-D-Phe-cyclo(Glu-His-D-Phe-Arg-Dab)-Trp-NH2 (peptide)”: the inhibition constant Ki was determined as 535 nM.
In the case of “Ac-Nle-cyclo(Dab-His-D-Phe-Arg-Dab)-Trp-NH2 with bridge C(═O)-(CH2)2-C(═O) (peptide)”, the Ki was found to be 380 nM.
Same read-out and setting: next, “Ac-Nle-cyclo(Dab-His-D-Phe-Arg-Dap)-Trp-NH2 with bridge C(═O)-(CH2)2-C(═O) (peptide)”: 325 nM.
Regarding “Ac-Nle-cyclo(Dap-His-D-Phe-Arg-Dab)-Trp-NH2 with bridge C(═O)-(CH2)2-C(═O) (peptide)”, the Ki came out at 860 nM.
In the case of “Ac-Nle-cyclo(Dap-His-D-Phe-Arg-Dap)-Trp-NH2 with bridge C(═O)-(CH2)2-C(═O) (peptide)”, the Ki came out at 680 nM.
Same read-out and setting: the figure for “Ac-Nle-cyclo(Glu-Ala-D-Phe-Arg-Dab)-Trp-NH2 (SEQ ID NO: 52) (peptide)” is 455 nM; for “Ac-Nle-cyclo(Glu-Ala-D-Phe-Arg-Dab)-Trp-NH2 (peptide)” it is 455 nM.
Still for that read-out and setting: next, “Ac-Nle-cyclo(Glu-Arg-D-Phe-Arg-Dab)-Trp-NH2 (SEQ ID NO: 53) (peptide)”: 20 nM; “Ac-Nle-cyclo(Glu-Arg-D-Phe-Arg-Dab)-Trp-NH2 (peptide)”: 20 nM; “Ac-Nle-cyclo(Glu-Cit-D-Phe-Arg-Dab)-Trp-NH2 (SEQ ID NO: 54) (peptide)”: 98 nM.
On the same count and under the same terms, the figure for “Ac-Nle-cyclo(Glu-Cit-D-Phe-Arg-Dab)-Trp-NH2 (peptide)” is 98 nM; for “Ac-Nle-cyclo(Glu-Dab-D-Phe-Arg-Dab)-Trp-NH2 (SEQ ID NO: 57) (peptide)” it is 98 nM.
Consider “Ac-Nle-cyclo(Glu-Dab-D-Phe-Arg-Dab)-Trp-NH2 (peptide)”, for which the inhibition constant (Ki) is 98 nM.
With “Ac-Nle-cyclo(Glu-His-D-Phe-Arg-Dab)-D-Nal 1-NH2 (peptide)”, the inhibitory constant (Ki) is 2 nM.
“Ac-Nle-cyclo(Glu-His-D-Phe-Arg-Dab)-D-Trp-NH2 (peptide)”: the inhibition constant Ki came out at 33 nM.
Take “Ac-Nle-cyclo(Glu-His-D-Phe-Arg-Dab)-Nal 1-NH2 (peptide)”: the Ki turned out to be 0.75 nM.
On the same count and under the same terms, the figure for “Ac-Nle-cyclo(Glu-His-D-Phe-Arg-Dab)-Nal 2-NH2 (SEQ ID NO: 14) (peptide)” is 0.095 nM; for “Ac-Nle-cyclo(Glu-His-D-Phe-Arg-Dab)-Nal 2-NH2 (peptide)” it is 3 nM.
In the case of “Ac-Nle-cyclo(Glu-His-D-Phe-Arg-Dab)-Trp-NH2 (peptide)”, the Ki came out at 110 nM.
With “Ac-Nle-cyclo(Glu-His-D-Phe-Arg-Dab)-Trp-OH (peptide)”, the inhibitory constant (Ki) came out at 10000 nM.
On the same count and under the same terms, next, “Ac-Nle-cyclo(Glu-His-D-Phe-Arg-Dap)-Trp-NH2 (peptide)”: 358 nM; “Ac-Nle-cyclo(Glu-His-D-Phe-Arg-Dap)-Trp-OH (peptide)”: 4700 nM.
On the same count and under the same terms, next, “Ac-Nle-cyclo(Glu-His-D-Phe-Arg-Orn)-Trp-NH2 (peptide)”: 295 nM.
“Ac-Nle-cyclo(Glu-Lys-D-Phe-Arg-Dab)-Trp-NH2 (SEQ ID NO: 56) (peptide)”: the inhibitory constant (Ki) was 95 nM.
Same read-out and setting: next, “Ac-Nle-cyclo(Glu-Lys-D-Phe-Arg-Dab)-Trp-NH2 (peptide)”: 95 nM; “Ac-Nle-cyclo(Glu-Orn-D-Phe(3,4-F)-Arg-Dab)-NH2 (peptide)”: 10000 nM.
With “Ac-Nle-cyclo(Glu-Orn-D-Phe(4-OMe)-Arg-Dab)-NH2 (peptide)”, the Ki was 10000 nM.
With “Ac-Nle-cyclo(Glu-Orn-D-Phe-Arg-Dab)-Trp-NH2 (SEQ ID NO: 58) (peptide)”, the Ki was determined as 45 nM.
Still for that read-out and setting: the figure for “Ac-Nle-cyclo(Glu-Orn-D-Phe-Arg-Dab)-Trp-NH2 (peptide)” is 45 nM.
For the substance “Ac-Nle-cyclo(Glu-Pro-D-Phe-Arg-Dab)-NH2 (peptide)”, the inhibition constant (Ki) came to 10000 nM.
Still for that read-out and setting: the figure for Ac-[Nle]DH[dF]R[Dap]W-NH2 (lactam 2-6) is 1320 nM.
On to Ac-[Nle]EH[dF]A[Dab]-NH2 (lactam 2-6), for which the Ki came out at 10000 nM.
For the substance “Ac-[Nle]EH[dF]A[Dab]-NH2 (lactam 2-6; SEQ ID NO: 48)”, the inhibitory constant (Ki) turned out to be 10000 nM.
Take Ac-[Nle]EH[dF]A[Dab]W-NH2 (lactam 2-6): the Ki turned out to be 10000 nM.
For Ac-[Nle]EH[dF]G[Dab]W-NH2 (lactam 2-6), the inhibition constant (Ki) turned out to be 10000 nM.
Consider Ac-[Nle]EH[dF]R[Dab]-NH2 (lactam 2-6), for which the Ki turned out to be 10000 nM.
In the case of “Ac-[Nle]EH[dF]R[Dab]-NH2 (lactam 2-6; SEQ ID NO: 47)”, the Ki stood at 10000 nM.
Same read-out and setting: next, Ac-[Nle]EH[dF]R[Dab]A-NH2 (lactam 2-6): 7480 nM; Ac-[Nle]EH[dF]R[Dab]K-NH2 (lactam 2-6): 7380 nM; Ac-[Nle]EH[dF][Dab]-NH2 (lactam 2-5): 10000 nM.
Take Ac-[Nle]EP[dF]R[Dab]W-NH2 (lactam 2-6): the Ki stood at 185 nM.
On the same count and under the same terms, next, “Ac-[Nle]E[Orn][dF]R[Dab]-NH2 (lactam 2-6)”: 3620 nM.
“Ac-[Nle]E[Orn][dPhe(2-Cl)]R[Dab]-NH2 (lactam 2-6)”: the Ki came to 10000 nM.
Turning to “Ac-[Nle]E[Orn][dPhe(2-F)]R[Dab]-NH2 (lactam 2-6)”, the inhibitory constant (Ki) came out at 10000 nM.
Turning to “Ac-[Nle]E[Orn][dPhe(3-Cl)]R[Dab]-NH2 (lactam 2-6)”, the inhibitory constant (Ki) was found to be 10000 nM.
Regarding “Ac-[Nle]E[Orn][dPhe(4-Cl)]R[Dab]-NH2 (lactam 2-6)”, the Ki amounted to 1240 nM.
Turning to “Ac-[Nle]E[Orn][dPhe(4-F)]R[Dab]-NH2 (lactam 2-6)”, the inhibitory constant (Ki) was 10000 nM.
Consider “Ac-[Nle]E[Orn][dPhe(4-Me)]R[Dab]-NH2 (lactam 2-6)”, for which the inhibition constant Ki was determined as 10000 nM.
